Source: patent US6669963B1, “Stable particle in liquid formulations” (Elan Drug Delivery Limited, priority 1997, dated 2003)

Legend:
[1] = Storage stability of EPO preparations, residual EPO by Quantikine IVD EPO-specific immunoassay; type: physicochemical; details: within one day
Experimental: Freeze dried EPO was re-hydrated and diluted 100 fold with a buffer of the following composition:
and dried in a spray dryer as above. The powder was weighed into 125 mg aliquots and subjected to secondary drying at a temperature ramping from 40° C. to 80° C. at a rate of 15 degrees per hour under vacuum and then either sealed in a serum vial or re-suspended in 0.5 ml of mineral oil BP and sealed. They were then stored at 37° C. or 55° C. for up to 15 days. At the end of the storage period, residual EPO was extracted into phosphate buffered saline containing 0.01% BSA as above and the amount remaining in the extract was measured using a Quantikine IVD EPO-specific immunoassay (RD Systems Inc).

phage lambda DNA = assay: Storage stability of EcoR1 preparations, residual titre by complete cutting of DNA; type: physicochemical
Experimental: Restriction enzymes are customarily stored in freezers at −20° C. in buffers containing 50% glycerol to prevent ice formation. Even under these conditions some of them have a limited storage life and need to be replaced at intervals. Several enzymes were dried using the technique of the present invention with similar results. The data with one enzyme, EcoR1, is illustrated. The enzyme solution was diluted 100 fold in SC buffer (Colaco C. A. L. S., Sen S., Thangavelu M., Pinder S. and Roser B. “Extraordinary stability of enzymes dried in trehalose: Simplified molecular biology.” Biotechnol. 10 1007-1011 (1992)). The dried enzyme was produced in the spray dryer as above, sealed in vials with or without oil and its stability was compared with fresh liquid enzyme diluted in cutting buffer at three storage temperatures 4° C., 37° C. and 55° C. To determine residual activity after storage, the enzyme was recovered into the acueous phase as described earlier, diluted with SC buffer in a 2-fold dilution series and used to cut 0.5 μg of phage lambda DNA (Life Technologies Inc). The completeness of cutting at various dilutions was assessed by separating the DNA fragments by agarose gel electrophoresis in which the bands were visualised under UV light by ethidium bromide staining.

Row | Substance | loss of activity ([1]; 37° C.) [%] | loss of activity ([1]; 55° C.) [%] | activity on storage (phage lambda DNA; 4° C., over 28 days) | activity on storage (phage lambda DNA; 37° C., by 28 days) | time to completely inactive (phage lambda DNA; 55° C.) [days]
1 | fresh EPO: Recombinant Human Erythropoietin, not dried in trehalose | 88 | > 95 |  |  | 
2 | fresh enzyme: Restriction Endonuclease EcoR1, fresh liquid enzyme diluted in cutting buffer |  |  | stable | lost essentially all activity | ≤ 7
